Consider 15 variants from IntAct's records for PubMed 25910212.

To fix the notation:
B1: Carbonic anhydrase-related protein (Homo sapiens), P35219 (parent)
chain: MADLSFIEDTVAFPEKEEDEEEEEEGVEWGYEEGVEWGLVFPDANGEYQSPINLNSREARYDPSLLDVRLSPNYVVCRDCEVTNDGHTIQVILKSKSVLSGGPLPQGHEFELYEVRFHWGRENQRGSEHTVNFKAFPMELHLIHWNSTLFGSIDEAVGKPHGIAIIALFVQIGKEHVGLKAVTEILQDIQYKGKSKTIPCFNPNTLLPDPLLRDYWVYEGSLTIPPCSEGVTWILFRYPLTISQLQIEEFRRLRTHVKGAELVEGCDGILGDNFRPTQPLSDRVIRAAFQ
partner: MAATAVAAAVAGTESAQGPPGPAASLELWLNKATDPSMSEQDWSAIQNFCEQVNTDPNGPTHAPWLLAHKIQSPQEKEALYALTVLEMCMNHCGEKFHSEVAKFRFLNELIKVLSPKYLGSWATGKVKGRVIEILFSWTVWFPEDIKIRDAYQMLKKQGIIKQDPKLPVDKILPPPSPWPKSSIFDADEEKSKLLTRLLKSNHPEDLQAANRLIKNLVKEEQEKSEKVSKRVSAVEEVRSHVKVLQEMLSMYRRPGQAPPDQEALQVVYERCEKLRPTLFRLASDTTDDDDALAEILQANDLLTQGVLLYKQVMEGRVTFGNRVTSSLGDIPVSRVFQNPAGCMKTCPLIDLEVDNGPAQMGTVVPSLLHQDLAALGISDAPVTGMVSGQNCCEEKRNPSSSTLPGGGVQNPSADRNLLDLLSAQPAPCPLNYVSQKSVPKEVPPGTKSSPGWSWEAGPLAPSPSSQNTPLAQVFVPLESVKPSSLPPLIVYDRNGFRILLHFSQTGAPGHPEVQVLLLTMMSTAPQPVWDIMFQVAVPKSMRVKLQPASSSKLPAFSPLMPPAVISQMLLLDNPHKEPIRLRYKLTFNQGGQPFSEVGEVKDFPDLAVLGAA
B2: Inactive peptidyl-prolyl cis-trans isomerase FKBP6 (Homo sapiens), O75344 (parent)
chain: MGGSALNQGVLEGDDAPGQSLYERLSQRMLDISGDRGVLKDVIREGAGDLVAPDASVLVKYSGYLEHMDRPFDSNYFRKTPRLMKLGEDITLWGMELGLLSMRRGELARFLFKPNYAYGTLGCPPLIPPNTTVLFEIELLDFLDCAESDKFCALSAEQQDQFPLQKVLKVAATEREFGNYLFRQNRFYDAKVRYKRALLLLRRRSAPPEEQHLVEAAKLPVLLNLSFTYLKLDRPTIALCYGEQALIIDQKNAKALFRCGQACLLLTEYQKARDFLVRAQKEQPFNHDINNELKKLASCYRDYVDKEKEMWHRMFAPCGDGSTAGES
partner: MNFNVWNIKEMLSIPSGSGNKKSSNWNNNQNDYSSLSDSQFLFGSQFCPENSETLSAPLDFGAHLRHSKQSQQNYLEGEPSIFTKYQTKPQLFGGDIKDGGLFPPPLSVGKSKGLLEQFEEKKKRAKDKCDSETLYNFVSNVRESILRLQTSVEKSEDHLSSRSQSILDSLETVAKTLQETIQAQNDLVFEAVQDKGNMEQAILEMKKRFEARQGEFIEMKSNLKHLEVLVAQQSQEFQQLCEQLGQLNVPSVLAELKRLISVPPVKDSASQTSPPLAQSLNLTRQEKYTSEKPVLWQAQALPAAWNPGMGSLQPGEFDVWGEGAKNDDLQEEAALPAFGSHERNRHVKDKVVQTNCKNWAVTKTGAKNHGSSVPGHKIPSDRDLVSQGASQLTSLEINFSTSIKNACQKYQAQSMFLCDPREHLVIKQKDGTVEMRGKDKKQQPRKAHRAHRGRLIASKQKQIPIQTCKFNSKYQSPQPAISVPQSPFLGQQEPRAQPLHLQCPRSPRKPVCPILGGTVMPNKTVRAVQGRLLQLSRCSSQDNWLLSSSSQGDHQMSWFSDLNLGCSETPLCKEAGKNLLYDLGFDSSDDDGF
B3: Emerin (Homo sapiens), P50402 (parent)
chain: MDNYADLSDTELTTLLRRYNIPHGPVVGSTRRLYEKKIFEYETQRRRLSPPSSSAASSYSFSDLNSTRGDADMYDLPKKEDALLYQSKGYNDDYYEESYFTTRTYGEPESAGPSRAVRQSVTSFPDADAFHHQVHDDDLLSSSEEECKDRERPMYGRDSAYQSITHYRPVSASRSSLDLSYYPTSSSTSFMSSSSSSSSWLTRRAIRPENRAPGAGLGQDRQVPLWGQLLLFLVFVIVLFFIYHFMQAEEGNPF
partner: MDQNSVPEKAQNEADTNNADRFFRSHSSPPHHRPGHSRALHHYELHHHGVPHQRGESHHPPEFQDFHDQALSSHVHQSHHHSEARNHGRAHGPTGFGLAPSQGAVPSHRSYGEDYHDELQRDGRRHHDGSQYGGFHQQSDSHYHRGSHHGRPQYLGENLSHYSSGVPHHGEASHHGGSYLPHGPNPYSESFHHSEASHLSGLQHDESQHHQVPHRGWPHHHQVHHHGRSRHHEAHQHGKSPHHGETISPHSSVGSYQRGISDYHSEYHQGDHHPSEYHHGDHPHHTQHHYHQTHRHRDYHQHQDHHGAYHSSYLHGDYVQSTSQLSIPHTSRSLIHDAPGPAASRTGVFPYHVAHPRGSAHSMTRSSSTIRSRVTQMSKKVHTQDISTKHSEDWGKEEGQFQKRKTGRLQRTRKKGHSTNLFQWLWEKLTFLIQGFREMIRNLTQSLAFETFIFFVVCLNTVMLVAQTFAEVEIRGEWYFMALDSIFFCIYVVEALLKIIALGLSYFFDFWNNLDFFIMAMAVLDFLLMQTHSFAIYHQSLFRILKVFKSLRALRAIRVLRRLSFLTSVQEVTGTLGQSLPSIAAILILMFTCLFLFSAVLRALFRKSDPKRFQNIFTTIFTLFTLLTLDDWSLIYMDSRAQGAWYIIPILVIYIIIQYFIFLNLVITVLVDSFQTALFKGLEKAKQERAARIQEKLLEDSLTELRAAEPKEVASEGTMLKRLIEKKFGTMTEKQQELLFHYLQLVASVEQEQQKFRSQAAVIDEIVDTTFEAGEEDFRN
B4: EF-hand domain-containing protein 1 (Homo sapiens), Q5JVL4 (parent)
chain: MVSNPVHGLPFLPGTSFKDSTKTAFHRSQTLSYRNGYAIVRRPTVGIGGDRLQFNQLSQAELDELASKAPVLTYGQPKQAPPADFIPAHVAFDKKVLKFDAYFQEDVPMSTEEQYRIRQVNIYYYLEDDSMSVIEPVVENSGILQGKLIKRQRLAKNDRGDHYHWKDLNRGINITIYGKTFRVVDCDQFTQVFLESQGIELNPPEKMALDPYTELRKQPLRKYVTPSDFDQLKQFLTFDKQVLRFYAIWDDTDSMYGECRTYIIHYYLMDDTVEIREVHERNDGRDPFPLLMNRQRVPKVLVENAKNFPQCVLEISDQEVLEWYTAKDFIVGKSLTILGRTFFIYDCDPFTRRYYKEKFGITDLPRIDVSKREPPPVKQELPPYNGFGLVEDSAQNCFALIPKAPKKDVIKMLVNDNKVLRYLAVLESPIPEDKDRRFVFSYFLATDMISIFEPPVRNSGIIGGKYLGRTKVVKPYSTVDNPVYYGPSDFFIGAVIEVFGHRFIILDTDEYVLKYMESNAAQYSPEALASIQNHVRKREAPAPEAESKQTEKDPGVQELEALIDTIQKQLKDHSCKDNIREAFQIYDKEASGYVDRDMFFKICESLNVPVDDSLVKELIRMCSHGEGKINYYNFVRAFSN
partner: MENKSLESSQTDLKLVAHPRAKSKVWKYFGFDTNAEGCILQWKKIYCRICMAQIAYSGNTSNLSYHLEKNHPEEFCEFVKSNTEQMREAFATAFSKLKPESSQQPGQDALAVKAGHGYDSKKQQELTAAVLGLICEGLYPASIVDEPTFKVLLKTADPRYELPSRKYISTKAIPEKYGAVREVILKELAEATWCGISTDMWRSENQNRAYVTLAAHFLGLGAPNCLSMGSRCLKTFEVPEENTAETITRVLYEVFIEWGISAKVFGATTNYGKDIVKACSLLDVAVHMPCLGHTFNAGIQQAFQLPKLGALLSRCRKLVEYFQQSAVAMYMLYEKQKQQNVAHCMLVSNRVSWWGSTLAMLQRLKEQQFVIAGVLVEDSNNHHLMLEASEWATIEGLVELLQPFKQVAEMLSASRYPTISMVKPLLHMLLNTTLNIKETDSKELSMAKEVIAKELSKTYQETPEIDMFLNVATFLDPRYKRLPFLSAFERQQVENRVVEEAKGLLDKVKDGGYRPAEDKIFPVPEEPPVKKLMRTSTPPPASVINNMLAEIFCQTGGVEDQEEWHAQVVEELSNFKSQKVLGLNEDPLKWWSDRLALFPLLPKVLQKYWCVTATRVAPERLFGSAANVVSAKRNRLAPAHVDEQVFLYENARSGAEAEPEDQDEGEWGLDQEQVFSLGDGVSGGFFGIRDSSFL
B5: Mothers against decapentaplegic homolog 3 (Homo sapiens), P84022 (parent)
chain: MSSILPFTPPIVKRLLGWKKGEQNGQEEKWCEKAVKSLVKKLKKTGQLDELEKAITTQNVNTKCITIPRSLDGRLQVSHRKGLPHVIYCRLWRWPDLHSHHELRAMELCEFAFNMKKDEVCVNPYHYQRVETPVLPPVLVPRHTEIPAEFPPLDDYSHSIPENTNFPAGIEPQSNIPETPPPGYLSEDGETSDHQMNHSMDAGSPNLSPNPMSPAHNNLDLQPVTYCEPAFWCSISYYELNQRVGETFHASQPSMTVDGFTDPSNSERFCLGLLSNVNRNAAVELTRRHIGRGVRLYYIGGEVFAECLSDSAIFVQSPNCNQRYGWHPATVCKIPPGCNLKIFNNQEFAALLAQSVNQGFEAVYQLTRMCTIRMSFVKGWGAEYRRQTVTSTPCWIELHLNGPLQWLDKVLTQMGSPSIRCSSVS

One experiment covers variants of B1. The conditions noted are these: with gga2_human GGA2, Q9UJY4.
For the variant S100P, the “effect of a mutation on the interaction” value is listed as “disrupting interaction strength”.

Variants of B2 are the subject of a further experiment. The conditions noted are these: with iho1_human IHO1, Q8IYA8.
In the case of R202H, the “effect of a mutation on the interaction” value is given as “with no effect”.

With F72L, the “effect of a mutation on the interaction” value is listed as “with no effect”.

The variants in the next experiment derive from B3. The conditions noted are these: with ctsr1_human CATSPER1, Q8NEC5.
In the case of P183T, the “effect of a mutation on the interaction” value was “with no effect”.

On to P183H, for which the “effect of a mutation on the interaction” value is recorded as “with no effect”.

For the variant S54F, the “effect of a mutation on the interaction” value is on record as “with no effect”.

As for D72V, the “effect of a mutation on the interaction” value is reported as “with no effect”.

The variants in a further experiment derive from B4. To be noted: with zbed1_human ZBED1, O96006.
With M448T, the “effect of a mutation on the interaction” value is given as “with no effect”.

P77T: the “effect of a mutation on the interaction” value is reported as “disrupting interaction strength”.

For R221H, the “effect of a mutation on the interaction” value was “disrupting interaction strength”.

For R159W, the “effect of a mutation on the interaction” value was “with no effect”.

Consider A394S, for which the “effect of a mutation on the interaction” value is on record as “disrupting interaction strength”.

On to T508R, for which the “effect of a mutation on the interaction” value is on record as “disrupting interaction strength”.

Another experiment covers variants of B5. The conditions noted are these: with wwp1_human WWP1, Q9H0M0.
Regarding I170V, the “effect of a mutation on the interaction” value is on record as “with no effect”.

As for N197I, the “effect of a mutation on the interaction” value is “with no effect”.

In another experiment the parent is B5. To be noted: with crx_human CRX.
With I170V, the “effect of a mutation on the interaction” value is reported as “with no effect”.

As for N197I, the “effect of a mutation on the interaction” value was “with no effect”.

Variants of B5 are the subject of a further experiment. To be noted: with wwp2_human WWP2, O00308.
Chain of wwp2_human WWP2, O00308 (O00308 whole entry): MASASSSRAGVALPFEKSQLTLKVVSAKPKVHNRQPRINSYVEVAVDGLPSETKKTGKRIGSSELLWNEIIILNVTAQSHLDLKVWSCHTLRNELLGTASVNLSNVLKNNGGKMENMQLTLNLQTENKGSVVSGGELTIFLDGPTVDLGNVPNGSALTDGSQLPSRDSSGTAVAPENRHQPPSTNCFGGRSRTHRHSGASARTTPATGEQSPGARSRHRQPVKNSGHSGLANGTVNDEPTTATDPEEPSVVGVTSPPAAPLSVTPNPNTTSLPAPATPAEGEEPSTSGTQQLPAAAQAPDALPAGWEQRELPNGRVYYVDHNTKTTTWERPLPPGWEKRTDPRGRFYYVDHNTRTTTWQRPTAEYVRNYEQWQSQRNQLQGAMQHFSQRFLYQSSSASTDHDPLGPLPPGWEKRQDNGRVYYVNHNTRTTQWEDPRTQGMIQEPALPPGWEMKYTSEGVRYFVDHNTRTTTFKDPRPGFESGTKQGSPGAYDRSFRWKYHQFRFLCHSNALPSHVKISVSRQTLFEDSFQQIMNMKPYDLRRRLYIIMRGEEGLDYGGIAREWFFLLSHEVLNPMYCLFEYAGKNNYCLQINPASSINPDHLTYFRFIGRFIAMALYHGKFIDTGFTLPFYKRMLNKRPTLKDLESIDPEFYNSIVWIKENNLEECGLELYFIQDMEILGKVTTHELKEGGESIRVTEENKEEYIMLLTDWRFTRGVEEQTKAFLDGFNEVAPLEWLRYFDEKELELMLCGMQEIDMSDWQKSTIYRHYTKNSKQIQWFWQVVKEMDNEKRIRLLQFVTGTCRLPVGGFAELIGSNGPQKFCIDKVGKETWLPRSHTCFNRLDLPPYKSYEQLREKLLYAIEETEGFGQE
As to I170V, the “effect of a mutation on the interaction” value is listed as “with no effect”.

With N197I, the “effect of a mutation on the interaction” value was “with no effect”.

A further experiment covers variants of B5. The conditions noted are these: with smad4_human SMAD4, Q13485.
Chain of smad4_human SMAD4, Q13485 (Q13485 whole entry): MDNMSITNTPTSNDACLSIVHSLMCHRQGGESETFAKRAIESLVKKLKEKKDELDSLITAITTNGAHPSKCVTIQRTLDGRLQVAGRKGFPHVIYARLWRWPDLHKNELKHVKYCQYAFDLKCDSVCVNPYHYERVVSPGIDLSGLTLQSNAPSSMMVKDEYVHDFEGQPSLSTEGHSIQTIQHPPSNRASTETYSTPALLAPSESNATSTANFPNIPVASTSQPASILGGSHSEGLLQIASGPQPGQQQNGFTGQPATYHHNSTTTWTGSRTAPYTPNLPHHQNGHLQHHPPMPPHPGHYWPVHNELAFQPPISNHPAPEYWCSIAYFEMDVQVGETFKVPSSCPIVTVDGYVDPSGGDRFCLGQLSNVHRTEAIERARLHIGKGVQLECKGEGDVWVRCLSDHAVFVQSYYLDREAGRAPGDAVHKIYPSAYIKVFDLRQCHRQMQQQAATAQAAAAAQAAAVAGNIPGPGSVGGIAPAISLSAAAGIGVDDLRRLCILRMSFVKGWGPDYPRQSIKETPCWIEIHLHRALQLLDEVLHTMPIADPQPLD
As to I170V, the “effect of a mutation on the interaction” value is “with no effect”.

In the case of N197I, the “effect of a mutation on the interaction” value is given as “with no effect”.

Variants of B5 are the subject of a further experiment. The conditions noted are these: with meox2_human MEOX2, P50222.
Chain of meox2_human MEOX2, P50222 (P50222 whole entry): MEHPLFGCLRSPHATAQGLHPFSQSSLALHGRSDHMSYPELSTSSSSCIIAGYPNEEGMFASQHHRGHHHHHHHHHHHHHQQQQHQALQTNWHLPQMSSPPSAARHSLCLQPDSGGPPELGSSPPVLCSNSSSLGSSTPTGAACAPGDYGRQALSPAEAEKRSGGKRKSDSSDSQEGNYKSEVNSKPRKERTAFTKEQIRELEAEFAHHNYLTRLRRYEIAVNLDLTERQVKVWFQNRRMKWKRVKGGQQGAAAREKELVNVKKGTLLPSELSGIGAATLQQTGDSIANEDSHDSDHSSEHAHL
Regarding I170V, the “effect of a mutation on the interaction” value is “with no effect”.

Turning to N197I, the “effect of a mutation on the interaction” value was “with no effect”.

A further experiment covers variants of B5. The conditions noted are these: with ccd33_human CCDC33, Q8N5R6.
Chain of ccd33_human CCDC33, Q8N5R6 (Q8N5R6 whole entry): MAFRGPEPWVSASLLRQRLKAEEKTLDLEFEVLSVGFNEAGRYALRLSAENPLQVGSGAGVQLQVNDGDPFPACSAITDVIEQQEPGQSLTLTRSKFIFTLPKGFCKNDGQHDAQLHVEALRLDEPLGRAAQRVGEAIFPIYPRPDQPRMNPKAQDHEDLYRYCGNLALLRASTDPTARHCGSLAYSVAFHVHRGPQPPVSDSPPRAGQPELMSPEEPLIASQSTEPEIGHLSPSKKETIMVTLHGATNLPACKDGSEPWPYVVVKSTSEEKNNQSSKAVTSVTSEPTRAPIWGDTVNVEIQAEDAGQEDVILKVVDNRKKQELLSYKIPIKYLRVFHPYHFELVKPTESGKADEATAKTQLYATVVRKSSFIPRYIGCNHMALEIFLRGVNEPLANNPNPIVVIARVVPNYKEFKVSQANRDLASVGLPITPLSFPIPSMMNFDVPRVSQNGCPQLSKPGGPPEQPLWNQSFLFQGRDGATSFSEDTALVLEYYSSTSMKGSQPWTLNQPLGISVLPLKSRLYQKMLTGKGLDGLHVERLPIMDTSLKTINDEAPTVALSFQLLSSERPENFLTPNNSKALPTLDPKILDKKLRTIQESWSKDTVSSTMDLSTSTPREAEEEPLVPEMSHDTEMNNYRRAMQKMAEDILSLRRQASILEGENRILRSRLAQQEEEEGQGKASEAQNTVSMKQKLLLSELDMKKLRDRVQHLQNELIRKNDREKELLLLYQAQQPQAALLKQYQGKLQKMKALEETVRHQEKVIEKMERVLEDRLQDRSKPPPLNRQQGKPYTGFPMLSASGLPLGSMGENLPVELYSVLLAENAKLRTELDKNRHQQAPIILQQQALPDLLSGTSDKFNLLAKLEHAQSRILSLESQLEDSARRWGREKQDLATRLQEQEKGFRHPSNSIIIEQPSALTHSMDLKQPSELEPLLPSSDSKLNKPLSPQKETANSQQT
With I170V, the “effect of a mutation on the interaction” value was “with no effect”.

With N197I, the “effect of a mutation on the interaction” value was “with no effect”.
